Measurements from paper PMC2756588.

T1: Bzz1-2, P38822
T1 sequence (P38822 568-633, looked up): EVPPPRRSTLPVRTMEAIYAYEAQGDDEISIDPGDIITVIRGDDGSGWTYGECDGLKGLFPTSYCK

T2: Boi2, P39969
T2 sequence (P39969 32-116, looked up): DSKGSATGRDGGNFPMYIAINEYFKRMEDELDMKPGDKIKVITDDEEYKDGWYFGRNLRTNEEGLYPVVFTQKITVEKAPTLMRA

T3: Sla1-3, P32790
T3 sequence (P32790 344-424, looked up): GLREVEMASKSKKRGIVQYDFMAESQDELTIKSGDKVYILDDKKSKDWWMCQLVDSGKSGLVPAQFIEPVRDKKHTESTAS

T4: Nbp2, Q12163
T4 sequence (Q12163 103-180, looked up): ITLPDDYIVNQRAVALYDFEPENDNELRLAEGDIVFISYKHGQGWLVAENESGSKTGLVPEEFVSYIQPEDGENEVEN

T5: Boi1, P38041
T5 sequence (P38041 1-86, looked up): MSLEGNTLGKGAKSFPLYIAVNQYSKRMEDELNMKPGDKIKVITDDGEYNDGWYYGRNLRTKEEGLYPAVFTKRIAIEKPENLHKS

T6: Hof1, Q05080
T6 sequence (Q05080 590-669, looked up): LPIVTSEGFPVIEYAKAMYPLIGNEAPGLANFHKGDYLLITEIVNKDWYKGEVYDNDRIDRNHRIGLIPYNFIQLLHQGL

T7: Pin3, Q06449
T7 sequence (Q06449 53-122, looked up): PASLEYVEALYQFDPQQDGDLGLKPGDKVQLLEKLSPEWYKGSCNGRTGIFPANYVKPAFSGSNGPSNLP

T8: Cdc25, P04821
T8 sequence (P04821 50-136, looked up): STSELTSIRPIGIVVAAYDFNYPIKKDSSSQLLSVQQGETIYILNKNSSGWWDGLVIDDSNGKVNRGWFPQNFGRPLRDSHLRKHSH

T9: Myo5, Q04439
T9 sequence (Q04439 1072-1160, looked up): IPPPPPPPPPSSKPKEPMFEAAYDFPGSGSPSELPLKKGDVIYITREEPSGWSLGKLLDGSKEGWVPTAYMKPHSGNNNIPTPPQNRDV

T10: Sla1-2, P32790
T10 sequence (P32790 60-140, looked up): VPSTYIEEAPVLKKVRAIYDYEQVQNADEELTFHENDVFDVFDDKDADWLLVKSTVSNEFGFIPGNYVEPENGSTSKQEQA

T11: Abp1, P15891
T11 sequence (P15891 535-592, looked up): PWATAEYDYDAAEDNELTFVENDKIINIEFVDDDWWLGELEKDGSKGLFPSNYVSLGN

T12: Hse1, P38753
T12 sequence (P38753 208-285, looked up): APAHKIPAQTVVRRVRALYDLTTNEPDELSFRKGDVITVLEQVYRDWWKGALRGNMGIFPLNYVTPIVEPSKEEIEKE

T13: Fus1, P11710
T13 sequence (P11710 432-512, looked up): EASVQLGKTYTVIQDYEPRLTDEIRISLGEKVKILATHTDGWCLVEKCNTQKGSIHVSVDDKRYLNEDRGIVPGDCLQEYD

T14: Bbc1, P47068
T14 sequence (P47068 1-78, looked up): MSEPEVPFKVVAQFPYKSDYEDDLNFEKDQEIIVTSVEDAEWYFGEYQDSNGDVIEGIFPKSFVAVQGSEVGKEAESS

T15: Lsb4, P32793
T15 sequence (P32793 402-468, looked up): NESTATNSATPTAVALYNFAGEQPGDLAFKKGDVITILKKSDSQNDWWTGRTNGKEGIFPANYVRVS

T16: Cyk3, Q07533
T16 sequence (Q07533 1-83, looked up): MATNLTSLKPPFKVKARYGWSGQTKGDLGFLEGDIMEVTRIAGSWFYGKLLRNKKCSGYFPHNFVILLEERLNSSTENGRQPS

T17: Lsb3, P43603
T17 sequence (P43603 385-451, looked up): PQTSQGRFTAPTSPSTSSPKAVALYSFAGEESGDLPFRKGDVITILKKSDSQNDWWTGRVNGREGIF

T18: Bud14, P27637
T18 sequence (P27637 247-328, looked up): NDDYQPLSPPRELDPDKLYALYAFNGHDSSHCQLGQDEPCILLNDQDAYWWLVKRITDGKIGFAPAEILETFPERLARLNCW

T19: Bzz1-1, P38822
T19 sequence (P38822 478-572, looked up): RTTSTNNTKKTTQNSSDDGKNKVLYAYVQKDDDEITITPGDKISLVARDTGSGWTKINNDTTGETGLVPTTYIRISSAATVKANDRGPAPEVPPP

T20: Lsb1, P53281
T20 sequence (P53281 45-122, looked up): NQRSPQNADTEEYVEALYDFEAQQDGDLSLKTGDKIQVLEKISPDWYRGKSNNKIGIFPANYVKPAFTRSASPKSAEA

T21: Pex13, P80667
T21 sequence (P80667 295-386, looked up): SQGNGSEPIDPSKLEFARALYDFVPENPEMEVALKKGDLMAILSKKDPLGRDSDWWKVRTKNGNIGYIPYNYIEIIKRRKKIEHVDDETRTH

B1: unnamed (peptide)
chain: GRSRLFPHSPLGRSS
B2: unnamed (peptide)
chain: RRASLFPRDPKRLRP
B3: unnamed (peptide)
chain: VYTRTAFQIPGDDKI
B4: unnamed (peptide)
chain: LFMKGTPEFPKSGFS
B5: unnamed (peptide)
chain: PVLPPPRSPNRPTLS
B6: unnamed (peptide)
chain: PSRRAPLQLPQLVNK

Molecular target: T1, Bzz1-2, P38822
Experiment: SPOT array
Conditions: median of control spots 4538

Row | Binder | SPOT intensity
1 | B1 | 9
2 | B2 | 35
3 | B3 | 3
4 | B4 | 0
5 | B5 | 9
6 | B6 | 0

Molecular target: T2, Boi2, P39969
Experiment: SPOT array
Conditions: median of control spots 1161

Row | Binder | SPOT intensity
7 | B1 | 1
8 | B2 | 8
9 | B3 | 0
10 | B4 | 0
11 | B5 | 1280
12 | B6 | 0

Molecular target: T3, Sla1-3, P32790
Experiment: SPOT array
Conditions: median of control spots 5475

Row | Binder | SPOT intensity
13 | B1 | 8
14 | B2 | 158
15 | B3 | 0
16 | B4 | 0
17 | B5 | 6
18 | B6 | 0

Molecular target: T4, Nbp2, Q12163
Experiment: SPOT array
Conditions: median of control spots 357

Row | Binder | SPOT intensity
19 | B1 | 4
20 | B2 | 0
21 | B3 | 0
22 | B4 | 5
23 | B5 | 0
24 | B6 | 0

Molecular target: T5, Boi1, P38041
Experiment: SPOT array
Conditions: median of control spots 1162

Row | Binder | SPOT intensity
25 | B1 | 4
26 | B2 | 7
27 | B3 | 0
28 | B4 | 0
29 | B5 | 849
30 | B6 | 0

Molecular target: Bem1-1, P29366
Experiment: SPOT array
Conditions: median of control spots 4282

Chain of Bem1-1, P29366 (P29366 55-141): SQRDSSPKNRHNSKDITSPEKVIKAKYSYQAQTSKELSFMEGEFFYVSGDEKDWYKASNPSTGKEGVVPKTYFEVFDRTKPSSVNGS

Row | Binder | SPOT intensity
31 | B1 | 0
32 | B2 | 0
33 | B3 | 0
34 | B4 | 0
35 | B5 | 1
36 | B6 | 2

Molecular target: T6, Hof1, Q05080
Experiment: SPOT array
Conditions: median of control spots 4086

Row | Binder | SPOT intensity
37 | B1 | 14
38 | B2 | 21
39 | B3 | 0
40 | B4 | 0
41 | B5 | 9
42 | B6 | 0

Molecular target: T7, Pin3, Q06449
Experiment: SPOT array
Conditions: median of control spots 2171

Row | Binder | SPOT intensity
43 | B1 | 1
44 | B2 | 11
45 | B3 | 29
46 | B4 | 40
47 | B5 | 7
48 | B6 | 5

Molecular target: T8, Cdc25, P04821
Experiment: SPOT array
Conditions: median of control spots 969

Row | Binder | SPOT intensity
49 | B1 | 34
50 | B2 | 148
51 | B3 | 2
52 | B4 | 0
53 | B5 | 0
54 | B6 | 0

Molecular target: T9, Myo5, Q04439
Experiment: SPOT array
Conditions: median of control spots 471

Row | Binder | SPOT intensity
55 | B1 | 0
56 | B2 | 1
57 | B3 | 0
58 | B4 | 48
59 | B5 | 6
60 | B6 | 0

Molecular target: Myo3, P36006
Experiment: SPOT array
Conditions: median of control spots 468

Row | Binder | SPOT intensity
61 | B1 | 0
62 | B2 | 7
63 | B3 | 0
64 | B4 | 54
65 | B5 | 22
66 | B6 | 0

Molecular target: Sho1, P40073
Experiment: SPOT array
Conditions: median of control spots 1148

Chain of Sho1, P40073 (P40073 287-367): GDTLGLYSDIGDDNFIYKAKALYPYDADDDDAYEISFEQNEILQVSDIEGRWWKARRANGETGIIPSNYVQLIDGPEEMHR

Row | Binder | SPOT intensity
67 | B1 | 21
68 | B2 | 67
69 | B3 | 0
70 | B4 | 17
71 | B5 | 0
72 | B6 | 17

Molecular target: Bem1-2, P29366
Experiment: SPOT array
Conditions: median of control spots 4347

Chain of Bem1-2, P29366 (P29366 139-227): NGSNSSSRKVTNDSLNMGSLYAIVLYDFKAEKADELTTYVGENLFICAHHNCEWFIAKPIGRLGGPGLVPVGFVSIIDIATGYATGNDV

Row | Binder | SPOT intensity
73 | B1 | 5
74 | B2 | 7
75 | B3 | 0
76 | B4 | 0
77 | B5 | 6
78 | B6 | 0

Molecular target: T10, Sla1-2, P32790
Experiment: SPOT array
Conditions: median of control spots 712

Row | Binder | SPOT intensity
79 | B1 | 1
80 | B2 | 7
81 | B3 | 1
82 | B4 | 5
83 | B5 | 442
84 | B6 | 0

Molecular target: T11, Abp1, P15891
Experiment: SPOT array
Conditions: median of control spots 935

Row | Binder | SPOT intensity
85 | B1 | 34
86 | B2 | 95
87 | B3 | 0
88 | B4 | 85
89 | B5 | 133
90 | B6 | 45

Molecular target: Rvs167, P39743
Experiment: SPOT array
Conditions: median of control spots 2707

Chain of Rvs167, P39743 (P39743 419-482): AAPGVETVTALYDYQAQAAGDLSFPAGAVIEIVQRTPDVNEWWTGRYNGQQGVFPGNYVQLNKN

Row | Binder | SPOT intensity
91 | B1 | 0
92 | B2 | 0
93 | B3 | 0
94 | B4 | 1
95 | B5 | 6
96 | B6 | 0

Molecular target: T12, Hse1, P38753
Experiment: SPOT array
Conditions: median of control spots 1727

Row | Binder | SPOT intensity
97 | B1 | 9
98 | B2 | 79
99 | B3 | 0
100 | B4 | 2
101 | B5 | 0
102 | B6 | 0

Molecular target: T13, Fus1, P11710
Experiment: SPOT array
Conditions: median of control spots 1200

Row | Binder | SPOT intensity
103 | B1 | 16
104 | B2 | 25
105 | B3 | 0
106 | B4 | 0
107 | B5 | 0
108 | B6 | 0

Molecular target: T14, Bbc1, P47068
Experiment: SPOT array
Conditions: median of control spots 796

Row | Binder | SPOT intensity
109 | B1 | 12
110 | B2 | 165
111 | B3 | 0
112 | B4 | 1
113 | B5 | 151
114 | B6 | 12

Molecular target: GST
Experiment: SPOT array
Conditions: median of control spots 978

Row | Binder | SPOT intensity
115 | B1 | 0
116 | B2 | 5
117 | B3 | 3
118 | B4 | 0
119 | B5 | 1
120 | B6 | 1

Molecular target: T15, Lsb4, P32793
Experiment: SPOT array
Conditions: median of control spots 397

Row | Binder | SPOT intensity
121 | B1 | 0
122 | B2 | 4
123 | B3 | 0
124 | B4 | 50
125 | B5 | 325
126 | B6 | 2

Molecular target: T16, Cyk3, Q07533
Experiment: SPOT array
Conditions: median of control spots 1451

Row | Binder | SPOT intensity
127 | B1 | 2
128 | B2 | 3
129 | B3 | 0
130 | B4 | 0
131 | B5 | 0
132 | B6 | 0

Molecular target: T17, Lsb3, P43603
Experiment: SPOT array
Conditions: median of control spots 406

Row | Binder | SPOT intensity
133 | B1 | 0
134 | B2 | 2
135 | B3 | 0
136 | B4 | 8
137 | B5 | 102
138 | B6 | 0

Molecular target: T18, Bud14, P27637
Experiment: SPOT array
Conditions: median of control spots 956

Row | Binder | SPOT intensity
139 | B1 | 25
140 | B2 | 10
141 | B3 | 0
142 | B4 | 1
143 | B5 | 0
144 | B6 | 0

Molecular target: T19, Bzz1-1, P38822
Experiment: SPOT array
Conditions: median of control spots 4446

Row | Binder | SPOT intensity
145 | B1 | 0
146 | B2 | 1
147 | B3 | 0
148 | B4 | 0
149 | B5 | 8
150 | B6 | 0

Molecular target: T20, Lsb1, P53281
Experiment: SPOT array
Conditions: median of control spots 388

Row | Binder | SPOT intensity
151 | B1 | 0
152 | B2 | 0
153 | B3 | 1120
154 | B4 | 67
155 | B5 | 39
156 | B6 | 313

Molecular target: T21, Pex13, P80667
Experiment: SPOT array
Conditions: median of control spots 1341

Row | Binder | SPOT intensity
157 | B1 | 4
158 | B2 | 2
159 | B3 | 0
160 | B4 | 211
161 | B5 | 86
162 | B6 | 1
